Biological target: the molecule itself
Experiment: yeast two-hybrid mating assay, β-galactosidase reporter
Description: The dual reporter YM4271 yeast strains containing the USE-B1 and USE-B1b tandem repeats have been described previously (O'Mahoney et al. 1998). A two-hybrid mating assay was used to examine the transactivation and dimerisation functions of hMusTRD1α1. The yeast reporter strain Y190 (CLONTECH) was transformed with 1 μg of pAS2-1, pAS2-1:hMusTRD1α1, or pAS2-1:ΔhMusTRD1α1 using an alkali cation method (BIO 101, Inc., La Jolla, Calif.) and mated with Y187 cells carrying either pACTII, pGAD10:hMusTRD1α1 or, pACTII:ΔhMusTRD1α1. Transformants were selected on complete synthetic media plates lacking tryptophan and leucine (BIO 101). Diploid cells were grown to saturation and used to inoculate test cultures (OD₆₀₀=0.1) that were grown for a further 24 h at 30° C. Cells were harvested in 100 μl Breaking Buffer (100 mM Tris-HCl pH 8, 20% glycerol, 5 mM PMSF, 2 mM DTT) and lysed by vortexing with glass beads. Protein concentration was determined by the Bradford method (Bio-Rad Laboratories, Sydney, NSW). Protein extracts (20 μg) were assayed for β-galactosidase activity with a chemiluminescence detection kit (CLONTECH) and a Turner Designs 20/20 luminometer (Sunnyvale, Calif.).

B1: ΔhMusTRD1α1 (truncated human MusTRD1α1, amino acids 1-458) (other)
chain: MALLGKRCDVPTNGCGPDRWNSAFTRKDEIITSLVSALDSMCSALSKLNAEVACVAVHDESAFVVGTEKGRMFLNARKELQSDFLRFCRGPPWKDPEAEHPKKVQRGEGGGRSLPRSSLEHGSDVYLLRKMVEEVFDVLYSEALGRASVVPLPYERLLREPGLLAVQGLPEGLAFRRPAEYDPKALMAILEHSHRIRFKLKRPLEDGGRDSKALVELNGVSLIPKGSRDCGLHGQAPKVPPQDLPPTATSSSMASFLYSTALPNHAIRELKQEAPSCPLAPSDLGLSRPMPEPKATGAQDFSDCCGQKPTGPGGPLIQNVHASKRILFSIVHDKSEKWDAFIKETEDINTLRECVQILFNSRYAEALGLDHMVPVPYRKIACDPEAVEIVGIPDKIPFKRPCTYGVPKLKRILEERHSIHFIIKRMFDERIFTGNKFTKDTTKLEPASPPEDTSAEVS
notes: the fusion parts are not written into the chain; In the COS-7 Western blot it was expressed from pCI-neo; also called ΔMusTRD; hMusTRD1α1458aa
B1: binds.
